In US8247194 (Amgen, dated 2012):

Assays:
[1] = biological target: T1, recombinant human GM-CSF (rhGM-CSF), produced in E. coli (human, UniProt P04141 18-144); test: SPR, rhGM-CSF coated chip, 1:1 Langmuir fit, analyte 116 nM
T1 construct: The ELISA of 2.5.2 and the TF-1 proliferation assays say only rhGM-CSF without naming the preparation; they are assigned to this molecule; also called human GM-CSF antigen; recombinant human granulocyte macrophage colony stimulating factor

[2] = biological target: T1, recombinant human GM-CSF (rhGM-CSF), …; test: cell-based or functional assay
[3] = biological target: T1, recombinant human GM-CSF (rhGM-CSF), …; test: SPR, rhGM-CSF coated chip, 1:1 Langmuir fit, analyte 347 nM
[4] = biological target: T1, recombinant human GM-CSF (rhGM-CSF), …; test: SPR, rhGM-CSF coated chip, 1:1 Langmuir fit, analyte 3120 nM; analyte concentration 3120 nM
[5] = biological target: T1, recombinant human GM-CSF (rhGM-CSF), …; test: SPR, purified SCA over rhGM-CSF coated chip, 1:1 Langmuir fit
Protocol: FIG. 36A, B: Kinetic binding analysis of SCA leads derived from the method of the invention, as determined by SPR. Binding kinetics (kd and ka) of the SCA leads were measured injecting 10 μL of purified protein in dilution series ranging from 10 μg/mL to 1 pg/mL purified SCA onto a rhGM-CSF coated sensor chip surface. The dissociation was monitored at 25° C. for 100 sec. Data were fitted using BIAevalution™ software determining the rate constant for dissociation (FIG. 36B) and association (FIG. 36A) kinetics. The residuals corresponding to the fitted data monitoring the deviation from the raw data indicated no systematic deviation for the fit.

[6] = biological target: T1, recombinant human GM-CSF (rhGM-CSF), …; test: SPR, rhGM-CSF coated chip, 1:1 Langmuir fit, analyte 1040 nM
[7] = biological target: T1, recombinant human GM-CSF (rhGM-CSF), …; test: SPR, rhGM-CSF coated chip, 1:1 Langmuir fit, analyte 3120 nM
[8] = biological target: T1, recombinant human GM-CSF (rhGM-CSF), …; test: SPR, rhGM-CSF coated chip, 1:1 Langmuir fit, analyte 12.8 nM
[9] = biological target: T1, recombinant human GM-CSF (rhGM-CSF), …; test: SPR, rhGM-CSF coated chip, 1:1 Langmuir fit, analyte 38.5 nM

T1 sequence (P04141 18-144 limits assumed): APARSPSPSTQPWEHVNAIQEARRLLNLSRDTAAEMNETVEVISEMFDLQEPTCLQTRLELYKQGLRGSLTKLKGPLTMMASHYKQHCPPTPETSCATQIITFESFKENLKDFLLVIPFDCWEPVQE

B1: half-human SCA B32oN-45 (scFv)
scFv: ELQLVEQSGAALVKPGDSVKMSCKASGYPFTDYIVHWVKQSHGKSLDWIGYINPYSGDTKFNEKFKSKATLTVDKSSSTAYMEFSRLTSEDSAIYYCARSGLIAVYFDYWGQGTTVTVSSGGGGSGGGGSGGGGSELVMTQSPSSVSASVGDRVTIACRASQNIRNILNWYQQRPGKAPQLLIYAASNLQSGVPSRFSGSGSGTDFTLTINSLQPEDFATYYCQQSYSMPRTFGGGTKVEIKTGDYKDDDDKHHHHHH
notes: Expressed from pComb3H5BFlag/His, which adds the Flag-tag between the SCA and the His6-tag; As a lead it was purified by IMAC and gel filtration; also called maternal SCA B32oN-45
- Ka [1]: 1.66e+08 M⁻¹
- Kd [1]: 6.01 nM
- koff [1]: 0.00464 s⁻¹
- kon [1]: 772000 M⁻¹ s⁻¹
- half maximal inhibition constant (IC50), rhGM-CSF dependent proliferation of TF-1 cells [2]: 6 nM
- Ka [3]: 9.22e+07 M⁻¹
- Kd [3]: 10.8 nM
- koff [3]: 0.00477 s⁻¹
- kon [3]: 440000 M⁻¹ s⁻¹
- Kd [4]: 94.6 nM
- Kd [5]: 50 nM
- Ka [6]: 1.89e+07 M⁻¹
- Kd [6]: 52.8 nM
- koff [6]: 0.0046 s⁻¹
- kon [6]: 87100 M⁻¹ s⁻¹
- Ka [7]: 1.06e+07 M⁻¹
- koff [7]: 0.00514 s⁻¹
- kon [7]: 54300 M⁻¹ s⁻¹
- Ka [8]: 3.25e+08 M⁻¹
- Kd [8]: 3.07 nM
- koff [8]: 0.00384 s⁻¹
- kon [8]: 1.25e+06 M⁻¹ s⁻¹
- Ka [9]: 2.2e+08 M⁻¹
- Kd [9]: 4.55 nM
- koff [9]: 0.00444 s⁻¹
- kon [9]: 975000 M⁻¹ s⁻¹
